Experiment: yeast display, Sf9 membrane polyspecificity reagent, FACS + sequencing; frameworks hold sequencing errors
In short: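 Polyreactivity labels are assigned by the sorting gate from which each nanobody was recovered. The gates were low and high (top ~1%), set on anti-HA fluorescence for expression and streptavidin fluorescence for reagent binding. Before sorting, galactose-induced (36–48 hours) yeast display cells were stained for 1 hour at 4 °C with 10% biotinylated, detergent-solubilized Sf9 membrane reagent.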

QVQLVESGGGLVQAGGSLRLSCAASGSYTMGWYRQAPGKERELVAAISKSCGSTYYADSVKGRFTISRDNAKNTVYLQMNSLKPDDTAVYYCAAVGWWGTYDYWGQGTQVTVSS
polyreactivity (PSR sort gate): high polyreactivity

QVQLVESGGGLVQAGGSLRLSCAASGTFAFYTMGWYRPAPGKERELVAAISWDGGDTYYADSVKGRFTISRDNAKNTVYLQMNSLKPEDTAVYYCAADYSNSGYGYWGQGTQVTVSS
polyreactivity (PSR sort gate): low polyreactivity

QVQLVESGGGLVQAGGSLRLSCAASGTFDYYDMGWYRQAPGKERELVAGITSGGSTDYADSVKGRFTISRDNAKNTVYLQMNSLKPEDTAVYYCAADPFRIHTYDYWGQGTQVTVSS
polyreactivity (PSR sort gate): low polyreactivity

QVQLVESGGGLVQAGGSLRLSCAASGTFKWYAMGWYRQAPGKERELVAVISSSSSTNYADSVKGRFTISRDNAKNTVYLQMNSLKPKIPAVYYCNAKWTTLFDYWGQGTQVTVSS
polyreactivity (PSR sort gate): high polyreactivity

QVQLVESGGGLVQAGGSLRLSCAASGTFPGNAMGWYRQSPGKERELVATITRGGRTYYADSVKGRFTISRDNAKHTVYLQMNSLKPEDTAVYYCNTRVYFGKIRGYDYWGQGTQVTVSS
polyreactivity (PSR sort gate): high polyreactivity

QVQLVESGGGLVQAGGSLRLSCAASGTFQYNAMGWYRQAPGKERELLAAITSGGSTNYADSVKGRFTISRDNAKNTVYLQMNSLKPEDTAVYYCAAVRRYRASRGSLYYYWGQGTQVTVSS
polyreactivity (PSR sort gate): high polyreactivity

QVQLVESGGGLVQAGGSLRLSCAASGTFSFYALGWYRHAPGKERELVATIRSGGRTYYADSVKGRFTISRDTAKNTVYLQMNSLKPEDTAVYYCAKTGFLGLRQYGYWGQGTQVTVSS
polyreactivity (PSR sort gate): high polyreactivity

QVQLVESGGGLVQAGGSLRLSCAASGTFVTYMGWYRQAPGKERELVAAIRNGGSTNYADSVKGRFTISRDNAKNTVYLQMNSLKPEDTAVYYCAARVTYSRGYRGGSRTKYDYWGQGTQVTVSS
polyreactivity (PSR sort gate): low polyreactivity

QVQLVESGGGLVQAGGSLRLSCAASGTFYKYAMGWYRQAPGKERELVAAISWRGGRTYADSVKGRFKISRDNAKNTVYLQMNSLKPEDTAVYYCNKRFYPEHYYWGQGTQVTVSS
polyreactivity (PSR sort gate): high polyreactivity

QVQLVESGGGLVQAGGSLRLSCAASGTIFSRNAMGWYRQAPGKERELVAAITGSGSSTYYADSVKGRFTISRDNAKNTVYLQMNSLKPEDTAVYYCNAARVYLSEWGQGTQVTVSS
polyreactivity (PSR sort gate): high polyreactivity

QVQLVESGGGLVQAGGSLRLSCAASGTISVFYAKGWYRQAPGKEREFVAAISWRGGRTYYADSVKARFTISRDNAKNTVYLQMNSLKPEDTAVYYCAKDIVRGRSSRYDYWGQGTQVTVSS
polyreactivity (PSR sort gate): high polyreactivity

QVQLVESGGGLVQAGGSLRLSCAASGTNGMGWYRQAPGKERELVAAISGSGGSTYYADSVKGRFTISRDNAKNTVYLQMNSLKPEDTAVYYGAADSIQYTARPYDYWGQGTQVTVSS
polyreactivity (PSR sort gate): low polyreactivity

QVQLVESGGGLVQAGGSLRLSCAASGTTFAGNAMGWYRQAPGKERELVAAITFSGGRTDYADSVKGCFTISRDNAKNTVYLQMNSLKPEDTAVYYCAAPADDTVHYQNYYWGQGTQVTVSS
polyreactivity (PSR sort gate): low polyreactivity

QVQLVESGGGLVQAGGSLRLSCAASGTTFAVYTMGWYRQAPGKERELSTSYADSVKGRFTISRDNAKNTVYLQMNILKQEDTAVYYCNRDFYEFDSNSYRFDYWGQGTQVTVSS
polyreactivity (PSR sort gate): low polyreactivity

QVQLVESGGGLVQAGGSLRLSCAASGTTFRIYSMGWYRQAPGKERELVAGITRRGGSTFYADSVKGRFTISRDTAKNTVYFQMNSLKPEDTAVYYCAARFRGGMDYWGQGTQVTVSS
polyreactivity (PSR sort gate): high polyreactivity

QVQLVESGGGLVQAGGSLRLSCAASGTTFSGNAMGWYRQAPGKERELVAAITRSGSRTYYADSVKGRFTISRDNAKNTVYLQMHSLKPEDTAVYYCAKVGRTGDDYYYWGQGTQVTVSS
polyreactivity (PSR sort gate): high polyreactivity

QVQLVESGGGLVQAGGSLRLSCAASGTTFYYNAMGWYRQAPGKERELVARISRSGGSTYADSVKGRFTISRDNAKNTVYLQMNSLKPEDTAVYYCNADAYGTPEFTSYAVRYDYWGQGTQVTVSS
polyreactivity (PSR sort gate): low polyreactivity

QVQLVESGGGLVQAGGSLRLSCAASGTTIPRNAMGWYRQAPGKERELVAAITSGGSTNYADSVKGRFTISRDNAKNTVYLQMNSLKPEDTAVYYCAADEQVNTQYVVWGDYWGQGTQVTVSS
polyreactivity (PSR sort gate): low polyreactivity

QVQLVESGGGLVQAGGSLRLSCAASGTTLVRYAMGWYRQAPGKERELVASISYSGGSTHYADSVKGRFTISRDNAKNTVYLQMNSLKPEDTAVYYCAARPYYSWGGHYYWGQGTQVTVSS
polyreactivity (PSR sort gate): high polyreactivity

QVQLVESGGGLVQAGGSLRLSCAASGTTYYNAMGWYRQAPGKERELVAAIRFRSGSTYYADSVKGRFTISRDNAKNTVYLQMNSLKPEDTAVYYFAADNKRSWRYAYNYWGQGTQVTVSS
polyreactivity (PSR sort gate): high polyreactivity

QVQLVESGGGLVQAGGSLRLSCAASGVIFEYTAMGGYRQAPGKERELVAAITSSGGSTYYADSVKGRFTISRDKAKNTVYLQMNSLKPEDTAVYYCARVRRSAYYQDYYSWGQGTQVTVSS
polyreactivity (PSR sort gate): high polyreactivity

QVQLVESGGGLVQAGGSLRLSCAASGYGMGWYRQAPGKEREFVAAITSGGSTNYAVSVKGRFTISRDNAKNTVYLHMNSLKPEDSAVYYCAAAYSLYGHRYDYWGQGTQVTVSS
polyreactivity (PSR sort gate): high polyreactivity

QVQLVESGGGLVQAGGSLRLSCAASGYIFADYAMGWYRQAPGKEREFVARIRYRDGSTYYADSVKGRFTISRDNAKNTVYLQMNSLKPEDTAVYYCAAQLGRYSYYPMDYWGKGTQVTVSS
polyreactivity (PSR sort gate): high polyreactivity

QVQLVESGGGLVQAGGSLRLSCAASGYIFATYAMGWYRQAPGKERELVAAISWSGGRTYYADSVKGRFTISRDNAKNTVYLQMNSLKPEDTAVYYCNKATSRRVYGYDYWGQGTQVTVSS
polyreactivity (PSR sort gate): high polyreactivity

QVQLVESGGGLVQAGGSLRLSCAASGYIFATYAMGWYRQAPGKERELVAAITSTGSTYYADSVKGRFTISRDNAKNTVYLQMNSLKPEDTAVYYCAAVSGYRARYYLYYYWGQGTQVTVSA
polyreactivity (PSR sort gate): high polyreactivity

QVQLVESGGGLVQAGGSLRLSCAASGYIFDLNPMGRYRQAPGKERELVAAISTGGGTYYADSVKGRFTISRDNAKNTVYLQMNSLKPEDTAVYYCAADWGYWYAEYDYWGQGTLVTVSS
polyreactivity (PSR sort gate): low polyreactivity

QVQLVESGGGLVQAGGSLRLSCAASGYIFDRYAMGWYRQAPGKERELVAAISSDGSTYYADSVKGRFTISRDNAKNTVYLQMNSLKPEDTAVYYCAADGGESAWGGYDYWGQGTQVTVSS
polyreactivity (PSR sort gate): low polyreactivity

QVQLVESGGGLVQAGGSLRLSCAASGYIFEDYAMGWYRQAPGKERELVASIDSGSTTNYADSVKGRFTISRDNAKNTVYLQMNSLKPEDTAVYYCAADSYVSPEVRFDYWGQGTQVTVSS
polyreactivity (PSR sort gate): low polyreactivity

QVQLVESGGGLVQAGGSLRLSCAASGYIFEVNAMGWYRQAPGKERELVATIDTSSGSTNYADSVKGRFTISRDNAKNTVDLQMNSLKPEDTAVYYCAADDETVFLQDDYWGQGTQVTVSS
polyreactivity (PSR sort gate): low polyreactivity

QVQLVESGGGLVQAGGSLRLSCAASGYIFFNAMGWYRQAPGKERELVAAITYPVGSTHYADSVKGRFTISRDNAKNTVYLQMNSLKPEDTAVYYCAAEWYQYLRWYWTYEYYWGQGTQVTVSS
polyreactivity (PSR sort gate): low polyreactivity

QVQLVESGGGLVQAGGSLRLSCAASGYIFGINDMAWYIQAPGKERELVAAIRISGGSTYYADSVKGRFTISRDNAKNTVYLQMNSLKPEDTAVYYCNAQDDGGLEWRYEEDDYWGQGTQVTVSS
polyreactivity (PSR sort gate): low polyreactivity

QVQLVESGGGLVQAGGSLRLSCAASGYIFGSYAMGWYSQAPGKERELVATISYRAGRTYYADSVKGRFTISRDNAKNTVDLQMNSLTPEDTAVYYCAADLVIYLEYDYWGQGTQVTVSS
polyreactivity (PSR sort gate): low polyreactivity

QVQLVESGGGLVQAGGSLRLSCAASGYIFGVYAMGWYRQAPGKERELVAAISYGVGSTYYADSVKGRFTISRDNAKNTVYLQMNSLKPEDTAVYYCAADVFFYVYEAYLLYYWGQGTQVTVSS
polyreactivity (PSR sort gate): low polyreactivity

QVQLVESGGGLVQAGGSLRLSCAASGYIFGVYAMGWYRQAPGKERELVAVISSGDRTNYADSVKGRFTISRDNAKNTVYLQMNSLKPEDTAVYYCAADGRSPSYYGYDHWGQGTQVTVSS
polyreactivity (PSR sort gate): low polyreactivity

QVQLVESGGGLVQAGGSLRLSCAASGYIFGVYVMGWYRQAPGKERELVAAITRGGGNTYYADSVKGRFTFSRDNAKNPVYLQMNSLKPEDTAVYYCAARSLKSLSRYYYWGQGTQVTVSS
polyreactivity (PSR sort gate): high polyreactivity

QVQLVESGGGLVQAGGSLRLSCAASGYIFGWYDMGWYRQAPGKERELVAAIDSGGNTYYADSVKGPFTISRDNAKNTVYLQMNSLKPEDTAVYYCNADYWGWSGPPYEYWGQGTQVTVSS
polyreactivity (PSR sort gate): high polyreactivity

QVQLVESGGGLVQAGGSLRLSCAASGYIFGYNAMGWYRPAPGKERELVAAISRSAGRTYYADSVKGRFTISRDNAKNTVYLQMNSLKPEDSAVYYCAAQSYWLGYEYWGQGTQVTVSS
polyreactivity (PSR sort gate): high polyreactivity

QVQLVESGGGLVQAGGSLRLSCAASGYIFHLYAMGWYRQAPGKERELVAAISSGGRTYYADSVKGRFTISRDNAKNTVYLQMNSLKPEDTAVYYCAVRSYVNTAVGYYYWGQGTQVTVSS
polyreactivity (PSR sort gate): high polyreactivity

QVQLVESGGGLVQAGGSLRLSCAASGYIFHSYAMGWYRQAPGKERELVAAITSSGGSTYYADSVKGRFTISRDNAKNTVYLQMNSLKPEDTAVYYCAAEYYYVYPYYRSPKFDYWGQGTQVTVSS
polyreactivity (PSR sort gate): high polyreactivity

QVQLVESGGGLVQAGGSLRLSCAASGYIFKGNVMGWYRQAPGKERELVAAISSSGGRTYYADSVKWRFTISRDNAKNNVYLQMYSLKPEDTAVYYCNTKHRTKPTGPVDYWGQGTQVTVSS
polyreactivity (PSR sort gate): high polyreactivity

QVQLVESGGGLVQAGGSLRLSCAASGYIFKPNTMGWYRQAPGKERELVAAITRGGRTKYADSVKGRFTISRDNAKNTVYLQMNSLKPEATAVYYCNKVRTVTTYEYWGQGTQVTVSS
polyreactivity (PSR sort gate): high polyreactivity

QVQLVESGGGLVQAGGSLRLSCAASGYIFKRYAMGWYRQAPGKERELVAAISGNGGSTYYADSVKGRFTISRDNAKNTVYLQMNSLKPEDTAVYYCNKSGYYSPTSKGEYWGQGTQVTVSS
polyreactivity (PSR sort gate): low polyreactivity

QVQLVESGGGLVQAGGSLRLSCAASGYIFKSYVMGWNRQEPGKESELVAAITWSGGSTYYADSVKGRFTISRDNAKNTVYLQMNSLKPEDTAVYYCAAYRRRYRTTYDYWGQGTQVTVSS
polyreactivity (PSR sort gate): high polyreactivity
